Source: PMC3093450 (Nature, 2011)
Where a chain is given by its changes, count along the chain named. Names and notes keep the numbering of the source.

T1: His6-Sec24p (yeast, UniProt P40482 1-926)
T1 sequence (looked up): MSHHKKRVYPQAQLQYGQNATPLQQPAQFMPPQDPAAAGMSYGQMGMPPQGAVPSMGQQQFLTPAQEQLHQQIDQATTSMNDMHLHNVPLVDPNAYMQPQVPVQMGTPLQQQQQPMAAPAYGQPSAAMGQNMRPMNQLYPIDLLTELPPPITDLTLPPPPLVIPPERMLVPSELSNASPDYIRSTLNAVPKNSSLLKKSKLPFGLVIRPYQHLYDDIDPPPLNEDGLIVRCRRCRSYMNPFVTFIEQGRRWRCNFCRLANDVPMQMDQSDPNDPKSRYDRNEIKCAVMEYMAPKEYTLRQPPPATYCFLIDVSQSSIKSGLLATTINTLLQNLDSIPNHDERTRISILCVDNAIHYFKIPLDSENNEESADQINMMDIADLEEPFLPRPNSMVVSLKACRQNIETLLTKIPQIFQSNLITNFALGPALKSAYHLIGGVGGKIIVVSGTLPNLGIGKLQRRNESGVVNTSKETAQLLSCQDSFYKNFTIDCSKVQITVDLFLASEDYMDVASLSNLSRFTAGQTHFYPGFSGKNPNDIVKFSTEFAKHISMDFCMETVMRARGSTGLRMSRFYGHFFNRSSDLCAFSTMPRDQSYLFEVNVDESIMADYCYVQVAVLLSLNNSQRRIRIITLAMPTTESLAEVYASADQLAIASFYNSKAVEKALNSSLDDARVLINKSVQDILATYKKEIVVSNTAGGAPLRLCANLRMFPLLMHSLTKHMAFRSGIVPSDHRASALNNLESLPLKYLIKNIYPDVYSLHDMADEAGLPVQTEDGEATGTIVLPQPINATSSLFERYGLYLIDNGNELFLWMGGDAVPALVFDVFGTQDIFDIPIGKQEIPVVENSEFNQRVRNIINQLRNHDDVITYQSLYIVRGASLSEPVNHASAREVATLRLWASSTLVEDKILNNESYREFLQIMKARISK

B1: His6-Hrr25p (enzyme, yeast, UniProt P29295 1-494, looked up)
chain: MDLRVGRKFRIGRKIGSGSFGDIYHGTNLISGEEVAIKLESIRSRHPQLDYESRVYRYLSGGVGIPFIRWFGREGEYNAMVIDLLGPSLEDLFNYCHRRFSFKTVIMLALQMFCRIQYIHGRSFIHRDIKPDNFLMGVGRRGSTVHVIDFGLSKKYRDFNTHRHIPYRENKSLTGTARYASVNTHLGIEQSRRDDLESLGYVLIYFCKGSLPWQGLKATTKKQKYDRIMEKKLNVSVETLCSGLPLEFQEYMAYCKNLKFDEKPDYLFLARLFKDLSIKLEYHNDHLFDWTMLRYTKAMVEKQRDLLIEKGDLNANSNAASASNSTDNKSETFNKIKLLAMKKFPTHFHYYKNEDKHNPSPEEIKQQTILNNNAASSLPEELLNALDKGMENLRQQQPQQQVQSSQPQPQPQQLQQQPNGQRPNYYPEPLLQQQQRDSQEQQQQVPMATTRATQYPPQINSNNFNTNQASVPPQMRSNPQQPPQDKPAGQSIWL
B2: GST-Sec23p S742D (natural protein, yeast)
chain: DFETNEDINGVRFTWNVFPSTRSDANSNVVPVGCLYTPLKEYDELNVAPYNPVVCSGPHCKSILNPYCVIDPRNSSWSCPICNSRNHLPPQYTNLSQENMPLELQSTTIEYITNKPVTVPPIFFFVVDLTSETENLDSLKESIITSLSLLPPNALIGLITYGNVVQLHDLSSETIDRCNVFRGDREYQLEALTEMLTGQKPTGPGGAASHLPNAMNKVTPFSLNRFFLPLEQVEFKLNQLLENLSPDQWSVPAGHRPLRATGSALNIASLLLQGCYKNIPARIILFASGPGTVAPGLIVNSELKDPLRSHHDIDSDHAQHYKKACKFYNQIAQRVAANGHTVDIFAGCYDQIGMSEMKQLTDSTGGVLLLTDAFSTAIFKQSYLRLFAKDEEGYLKMAFNGNMAVKTSKDLKVQGLIGHASAVKKTDANNISESEIGIGATSTWKMASLSPYHSYAIFFEIANTAANSNPMMSAPGSADRPHLAYTQFITTYQHSSGTNRIRVTTVANQLLPFGTPAIAASFDQEAAAVLMARIAVHKAETDDGADVIRWLDRTLIKLCQKYADYNKDDPQSFRLAPNFSLYPQFTYYLRRSQFLSVFNNSPDETAFYRHIFTREDTTNSLIMIQPTLTSFSMEDDPQPVLLDSISVKPNTILLLDTFFFILIYHGEQIAQWRKAGYQDDPQYADFKALLEEPKLEAAELLVDRFPLPRFIDTEAGGSQARFLLSKLNPSDNYQDMARGGDTIVLTDDVSLQNFMTHLQQVAVSGQA
B3: GST-Sec23p S742D/T747E (natural protein, yeast)
chain: B2 chain with T746E
B4: GST-Sec23p T747E (natural protein, yeast)
chain: B2 chain with D741S, T746E
B5: GST-Sec23p (natural protein, yeast)
chain: B2 chain with D741S

Assays:
GST-Sec23p = target: B5; experiment: pull-down
His6-Sec24p = target: T1, His6-Sec24p; experiment: pull-down

Binder	Kd (GST-Sec23p) [nM]	binding result (His6-Sec24p)
B1	43	
B2		binds
B3		binds
B4		binds
B5		binds
